Experimental data as given in publication PMC4771870.

Biological target: mMBP-fused VERL-Fb (fragment of vitelline envelope receptor for lysin)
Test: crystal structure; crystals of the mMBP-VERL-Fb fusion, space group P2(1), 2.9 Å, molecular replacement with MBP; refinement ongoing

mMBP-fused VERL-Fb (fragment of vitelline envelope receptor for lysin), sequence (Q8WR62 25-3722): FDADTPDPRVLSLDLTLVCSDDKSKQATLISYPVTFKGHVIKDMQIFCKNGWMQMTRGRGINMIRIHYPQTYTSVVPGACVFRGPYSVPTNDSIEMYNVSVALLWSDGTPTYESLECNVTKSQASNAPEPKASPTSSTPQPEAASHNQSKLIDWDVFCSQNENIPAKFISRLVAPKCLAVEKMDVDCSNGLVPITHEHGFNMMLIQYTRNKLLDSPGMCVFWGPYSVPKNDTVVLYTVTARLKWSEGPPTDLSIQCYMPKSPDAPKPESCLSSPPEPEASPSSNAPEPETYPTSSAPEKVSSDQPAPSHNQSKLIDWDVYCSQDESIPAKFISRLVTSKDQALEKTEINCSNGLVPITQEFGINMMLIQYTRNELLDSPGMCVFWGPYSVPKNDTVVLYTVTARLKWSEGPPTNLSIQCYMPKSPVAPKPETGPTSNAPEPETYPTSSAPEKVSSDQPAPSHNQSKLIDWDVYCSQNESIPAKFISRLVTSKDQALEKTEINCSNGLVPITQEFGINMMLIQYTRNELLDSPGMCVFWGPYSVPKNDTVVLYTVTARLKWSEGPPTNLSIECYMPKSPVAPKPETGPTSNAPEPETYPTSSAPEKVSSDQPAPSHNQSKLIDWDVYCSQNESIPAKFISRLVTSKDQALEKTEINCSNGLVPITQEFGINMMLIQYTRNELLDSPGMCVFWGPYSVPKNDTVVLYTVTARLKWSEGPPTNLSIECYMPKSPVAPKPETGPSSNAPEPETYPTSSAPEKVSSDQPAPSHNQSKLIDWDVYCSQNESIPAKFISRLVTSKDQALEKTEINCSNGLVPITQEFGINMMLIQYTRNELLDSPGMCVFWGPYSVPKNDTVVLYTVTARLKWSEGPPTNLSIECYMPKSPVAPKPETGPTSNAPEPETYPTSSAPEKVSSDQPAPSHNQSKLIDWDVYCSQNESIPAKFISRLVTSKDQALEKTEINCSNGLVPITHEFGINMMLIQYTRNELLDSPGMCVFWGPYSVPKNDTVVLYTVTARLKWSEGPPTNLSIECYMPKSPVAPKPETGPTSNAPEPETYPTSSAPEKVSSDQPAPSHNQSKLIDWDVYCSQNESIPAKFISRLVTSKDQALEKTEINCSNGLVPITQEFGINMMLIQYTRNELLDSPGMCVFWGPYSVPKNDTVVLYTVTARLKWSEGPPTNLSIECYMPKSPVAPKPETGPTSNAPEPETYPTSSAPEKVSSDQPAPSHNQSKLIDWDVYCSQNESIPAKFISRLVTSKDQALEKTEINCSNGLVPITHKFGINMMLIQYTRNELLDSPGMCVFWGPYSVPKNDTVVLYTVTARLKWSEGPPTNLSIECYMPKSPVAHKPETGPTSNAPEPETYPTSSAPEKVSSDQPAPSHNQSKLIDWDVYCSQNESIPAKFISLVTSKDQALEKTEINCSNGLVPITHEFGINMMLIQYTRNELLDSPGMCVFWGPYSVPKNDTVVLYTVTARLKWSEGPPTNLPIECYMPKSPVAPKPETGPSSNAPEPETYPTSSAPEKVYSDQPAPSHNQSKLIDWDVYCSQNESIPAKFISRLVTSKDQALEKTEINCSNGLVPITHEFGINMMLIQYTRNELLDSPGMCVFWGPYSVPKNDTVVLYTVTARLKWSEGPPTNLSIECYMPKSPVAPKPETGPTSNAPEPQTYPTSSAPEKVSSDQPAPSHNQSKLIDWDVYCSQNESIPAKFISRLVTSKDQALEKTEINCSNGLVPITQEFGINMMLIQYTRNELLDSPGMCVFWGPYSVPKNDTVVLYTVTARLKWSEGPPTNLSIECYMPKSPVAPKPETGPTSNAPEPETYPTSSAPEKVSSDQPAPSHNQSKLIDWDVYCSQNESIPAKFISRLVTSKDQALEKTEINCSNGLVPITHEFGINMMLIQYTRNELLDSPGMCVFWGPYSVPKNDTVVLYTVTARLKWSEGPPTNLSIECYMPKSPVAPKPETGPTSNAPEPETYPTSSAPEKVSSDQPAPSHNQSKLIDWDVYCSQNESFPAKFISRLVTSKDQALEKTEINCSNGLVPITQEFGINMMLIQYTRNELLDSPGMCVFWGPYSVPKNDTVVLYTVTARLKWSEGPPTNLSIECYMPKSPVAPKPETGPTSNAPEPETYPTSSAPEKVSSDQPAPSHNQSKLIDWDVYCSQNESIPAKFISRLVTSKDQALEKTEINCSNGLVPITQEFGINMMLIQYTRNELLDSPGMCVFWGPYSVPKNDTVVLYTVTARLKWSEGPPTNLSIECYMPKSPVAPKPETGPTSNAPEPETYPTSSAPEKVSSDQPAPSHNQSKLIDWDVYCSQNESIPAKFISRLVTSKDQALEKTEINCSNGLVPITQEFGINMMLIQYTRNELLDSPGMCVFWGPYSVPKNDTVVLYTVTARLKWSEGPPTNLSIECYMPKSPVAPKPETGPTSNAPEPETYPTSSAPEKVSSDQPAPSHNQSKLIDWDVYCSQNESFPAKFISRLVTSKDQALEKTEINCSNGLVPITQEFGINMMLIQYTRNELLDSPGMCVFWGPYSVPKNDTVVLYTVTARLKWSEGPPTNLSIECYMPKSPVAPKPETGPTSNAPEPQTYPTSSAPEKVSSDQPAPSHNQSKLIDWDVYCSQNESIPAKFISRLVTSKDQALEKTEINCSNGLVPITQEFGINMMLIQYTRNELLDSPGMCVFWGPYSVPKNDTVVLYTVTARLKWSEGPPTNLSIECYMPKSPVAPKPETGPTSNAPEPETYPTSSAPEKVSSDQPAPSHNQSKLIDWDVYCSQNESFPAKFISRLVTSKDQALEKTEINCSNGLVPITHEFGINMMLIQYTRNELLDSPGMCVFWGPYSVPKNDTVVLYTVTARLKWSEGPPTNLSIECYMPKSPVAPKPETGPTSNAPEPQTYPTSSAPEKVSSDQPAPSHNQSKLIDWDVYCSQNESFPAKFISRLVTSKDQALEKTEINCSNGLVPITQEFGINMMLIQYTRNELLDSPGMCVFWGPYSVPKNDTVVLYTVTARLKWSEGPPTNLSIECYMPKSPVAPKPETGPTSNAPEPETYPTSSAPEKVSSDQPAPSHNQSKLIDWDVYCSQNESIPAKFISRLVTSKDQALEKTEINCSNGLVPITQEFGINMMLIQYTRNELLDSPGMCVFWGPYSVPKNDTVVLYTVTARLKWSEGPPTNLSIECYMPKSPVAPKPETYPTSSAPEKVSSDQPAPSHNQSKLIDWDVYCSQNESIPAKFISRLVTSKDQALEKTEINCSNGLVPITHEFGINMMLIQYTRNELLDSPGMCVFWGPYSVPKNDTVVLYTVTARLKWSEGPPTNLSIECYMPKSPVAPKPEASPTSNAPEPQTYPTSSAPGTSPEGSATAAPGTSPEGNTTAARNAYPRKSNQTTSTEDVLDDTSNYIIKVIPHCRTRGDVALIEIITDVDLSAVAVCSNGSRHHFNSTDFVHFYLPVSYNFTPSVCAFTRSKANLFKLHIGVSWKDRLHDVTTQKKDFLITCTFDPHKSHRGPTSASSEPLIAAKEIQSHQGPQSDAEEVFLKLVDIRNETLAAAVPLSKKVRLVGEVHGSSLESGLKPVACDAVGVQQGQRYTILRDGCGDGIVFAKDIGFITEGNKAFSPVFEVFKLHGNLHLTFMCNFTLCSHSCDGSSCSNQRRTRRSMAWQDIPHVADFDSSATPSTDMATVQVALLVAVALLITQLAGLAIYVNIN

- stoichiometry N: 2
Substance: mMBP-fused VERL-Fb (fragment of vitelline envelope receptor for lysin) (domain or fragment)
